Measurements reported in patent US5616559, “Papillomavirus E2 trans-activation repressors” (Biogen, Inc., dated 1997).

What follows are molecules tested against full-length native BPV1 E2 trans-activator protein (bovine papillomavirus type 1 (BPV1)) (UniProt P03122) (assay: not given).

Row | Molecule | Repression as % decrease in trans-activation by E2
1 | BPV1 E2 mutant 370I in the E2 repressor format (C-terminal 249 amino acids) (from UniProt P03122) | 66.1%
2 | BPV1 E2 mutant 366Y/376L in the E2 repressor format (C-terminal 249 amino acids) (from UniProt P03122) | 16.1%
3 | BPV1 E2 mutant 411* in the E2 repressor format (from UniProt P03122) | 4.5%
4 | BPV1 E2 mutant 374S/375L/391I (3SLI) in the E2 repressor format (C-terminal 249 amino acids) (from UniProt P03122) | 39%
5 | BPV1 E2 mutant 317STOP in the E2 repressor format (from UniProt P03122) | 7.1%
6 | BPV1 E2 mutant 402* in the E2 repressor format (from UniProt P03122) | 45.2%
7 | BPV1 E2 mutant 408* in the E2 repressor format (from UniProt P03122) | 59.5%
8 | BPV1 E2 mutant 316Y in the E2 repressor format (C-terminal 249 amino acids) (from UniProt P03122) | 8%

Biological target: full-length native BPV1 E2 trans-activator protein (bovine papillomavirus type 1 (BPV1)) (UniProt P03122)
Experiment: not given
Remark: another data set of the same source

Row | Molecule | % repression of E2-dependent trans-activation (CAT or hGH reporter)
9 | native BPV1 E2 repressor (C-terminal 249 amino acids of the BPV1 E2 protein) (from UniProt P03122) | > 80%

Each molecule was assayed against full-length native BPV1 E2 trans-activator protein (bovine papillomavirus type 1 (BPV1), UniProt P03122) (assay: cell-based or functional assay).

Row | Molecule | Repression as % decrease in trans-activation by E2
10 | BPV1 E2 mutant 333V in the E2 repressor format (C-terminal 249 amino acids) (other) MAGAGRIYYSRFGDEAARFSTTGHYSVRDQDRVYAGVSSTSSDFRDRPDGVWVASEGPEGDPAGKEAEPAQPVSSLLGSPACGPIRAGLGWVRDGPRSHPYNFPAGSGGSILRSSSTPVQGTVPVDLASRQEEEEQSPDSTEEEPVTLPRRTTNDGFHLLKAGGSCFALISVTANQVKCYRFRVKKNHRHRYENCTTTWFTVADNGAERQGQAQILITFGSPSQRQDFLKHVPLPPGMNISGFTASLDF | 0%
11 | BPV1 E2 mutant 340S in the E2 repressor format (C-terminal 249 amino acids) (other) MAGAGRIYYSRFGDEAARFSTTGHYSVRDQDRVYAGVSSTSSDFRDRPDGVWVASEGPEGDPAGKEAEPAQPVSSLLGSPACGPIRAGLGWVRDGPRSHPYNFPAGSGGSILRSSSTPVQGTVPVDLASRQEEEEQSPDSTEEEPVTLPRRTTNDGFHLLKAGGSCFALISGTANQVKSYRFRVKKNHRHRYENCTTTWFTVADNGAERQGQAQILITFGSPSQRQDFLKHVPLPPGMNISGFTASLDF | 89.6%
12 | BPV1 E2 mutant 360S in the E2 repressor format (C-terminal 249 amino acids) (other) MAGAGRIYYSRFGDEAARFSTTGHYSVRDQDRVYAGVSSTSSDFRDRPDGVWVASEGPEGDPAGKEAEPAQPVSSLLGSPACGPIRAGLGWVRDGPRSHPYNFPAGSGGSILRSSSTPVQGTVPVDLASRQEEEEQSPDSTEEEPVTLPRRTTNDGFHLLKAGGSCFALISGTANQVKCYRFRVKKNHRHRYENCTTTSFTVADNGAERQGQAQILITFGSPSQRQDFLKHVPLPPGMNISGFTASLDF | 32.3%
13 | BPV1 E2 mutant 386W in the E2 repressor format (C-terminal 249 amino acids) (other) MAGAGRIYYSRFGDEAARFSTTGHYSVRDQDRVYAGVSSTSSDFRDRPDGVWVASEGPEGDPAGKEAEPAQPVSSLLGSPACGPIRAGLGWVRDGPRSHPYNFPAGSGGSILRSSSTPVQGTVPVDLASRQEEEEQSPDSTEEEPVTLPRRTTNDGFHLLKAGGSCFALISGTANQVKCYRFRVKKNHRHRYENCTTTWFTVADNGAERQGQAQILITFGSPSQWQDFLKHVPLPPGMNISGFTASLDF | 81.4%
14 | BPV1 E2 mutant 340G in the E2 repressor format (C-terminal 249 amino acids) (other) MAGAGRIYYSRFGDEAARFSTTGHYSVRDQDRVYAGVSSTSSDFRDRPDGVWVASEGPEGDPAGKEAEPAQPVSSLLGSPACGPIRAGLGWVRDGPRSHPYNFPAGSGGSILRSSSTPVQGTVPVDLASRQEEEEQSPDSTEEEPVTLPRRTTNDGFHLLKAGGSCFALISGTANQVKGYRFRVKKNHRHRYENCTTTWFTVADNGAERQGQAQILITFGSPSQRQDFLKHVPLPPGMNISGFTASLDF | 91.7%
15 | BPV1 E2 mutant 337L in the E2 repressor format (C-terminal 249 amino acids) (other) MAGAGRIYYSRFGDEAARFSTTGHYSVRDQDRVYAGVSSTSSDFRDRPDGVWVASEGPEGDPAGKEAEPAQPVSSLLGSPACGPIRAGLGWVRDGPRSHPYNFPAGSGGSILRSSSTPVQGTVPVDLASRQEEEEQSPDSTEEEPVTLPRRTTNDGFHLLKAGGSCFALISGTANLVKCYRFRVKKNHRHRYENCTTTWFTVADNGAERQGQAQILITFGSPSQRQDFLKHVPLPPGMNISGFTASLDF | 90.4%
16 | BPV1 E2 mutant 339M in the E2 repressor format (C-terminal 249 amino acids) (other) MAGAGRIYYSRFGDEAARFSTTGHYSVRDQDRVYAGVSSTSSDFRDRPDGVWVASEGPEGDPAGKEAEPAQPVSSLLGSPACGPIRAGLGWVRDGPRSHPYNFPAGSGGSILRSSSTPVQGTVPVDLASRQEEEEQSPDSTEEEPVTLPRRTTNDGFHLLKAGGSCFALISGTANQVMCYRFRVKKNHRHRYENCTTTWFTVADNGAERQGQAQILITFGSPSQRQDFLKHVPLPPGMNISGFTASLDF | 76.2%
17 | BPV1 E2 mutant 399I in the E2 repressor format (C-terminal 249 amino acids) (other) MAGAGRIYYSRFGDEAARFSTTGHYSVRDQDRVYAGVSSTSSDFRDRPDGVWVASEGPEGDPAGKEAEPAQPVSSLLGSPACGPIRAGLGWVRDGPRSHPYNFPAGSGGSILRSSSTPVQGTVPVDLASRQEEEEQSPDSTEEEPVTLPRRTTNDGFHLLKAGGSCFALISGTANQVKCYRFRVKKNHRHRYENCTTTWFTVADNGAERQGQAQILITFGSPSQRQDFLKHVPLPPGINISGFTASLDF | 86.9%
18 | BPV1 E2 mutant 340Y in the E2 repressor format (C-terminal 249 amino acids) (other) MAGAGRIYYSRFGDEAARFSTTGHYSVRDQDRVYAGVSSTSSDFRDRPDGVWVASEGPEGDPAGKEAEPAQPVSSLLGSPACGPIRAGLGWVRDGPRSHPYNFPAGSGGSILRSSSTPVQGTVPVDLASRQEEEEQSPDSTEEEPVTLPRRTTNDGFHLLKAGGSCFALISGTANQVKYYRFRVKKNHRHRYENCTTTWFTVADNGAERQGQAQILITFGSPSQRQDFLKHVPLPPGMNISGFTASLDF | 93.5%
19 | BPV1 E2 mutant 340F in the E2 repressor format (C-terminal 249 amino acids) (other) MAGAGRIYYSRFGDEAARFSTTGHYSVRDQDRVYAGVSSTSSDFRDRPDGVWVASEGPEGDPAGKEAEPAQPVSSLLGSPACGPIRAGLGWVRDGPRSHPYNFPAGSGGSILRSSSTPVQGTVPVDLASRQEEEEQSPDSTEEEPVTLPRRTTNDGFHLLKAGGSCFALISGTANQVKFYRFRVKKNHRHRYENCTTTWFTVADNGAERQGQAQILITFGSPSQRQDFLKHVPLPPGMNISGFTASLDF | 86.1%
20 | BPV1 E2 mutant 340R in the E2 repressor format (C-terminal 249 amino acids) (other) MAGAGRIYYSRFGDEAARFSTTGHYSVRDQDRVYAGVSSTSSDFRDRPDGVWVASEGPEGDPAGKEAEPAQPVSSLLGSPACGPIRAGLGWVRDGPRSHPYNFPAGSGGSILRSSSTPVQGTVPVDLASRQEEEEQSPDSTEEEPVTLPRRTTNDGFHLLKAGGSCFALISGTANQVKRYRFRVKKNHRHRYENCTTTWFTVADNGAERQGQAQILITFGSPSQRQDFLKHVPLPPGMNISGFTASLDF | 95.6%
21 | BPV1 E2 mutant 344L in the E2 repressor format (C-terminal 249 amino acids) (other) MAGAGRIYYSRFGDEAARFSTTGHYSVRDQDRVYAGVSSTSSDFRDRPDGVWVASEGPEGDPAGKEAEPAQPVSSLLGSPACGPIRAGLGWVRDGPRSHPYNFPAGSGGSILRSSSTPVQGTVPVDLASRQEEEEQSPDSTEEEPVTLPRRTTNDGFHLLKAGGSCFALISGTANQVKCYRFLVKKNHRHRYENCTTTWFTVADNGAERQGQAQILITFGSPSQRQDFLKHVPLPPGMNISGFTASLDF | 82.6%

Biological target: the molecule itself
Experiment: homodimerization; UV cross-linking, SDS-PAGE, immunoblot

Row | Molecule | binding result
22 | BPV1 E2 mutant 333V, full-length form (other) METACERLHVAQETQMQLIEKSSDKLQDHILYWTAVRTENTLLYAARKKGVTVLGHCRVPHSVVCQERAKQAIEMQLSLQELSKTEFGDEPWSLLDTSWDRYMSEPKRCFKKGARVVEVEFDGNASNTNWYTVYSNLYMRTEDGWQLAKAGADGTGLYYCTMAGAGRIYYSRFGDEAARFSTTGHYSVRDQDRVYAGVSSTSSDFRDRPDGVWVASEGPEGDPAGKEAEPAQPVSSLLGSPACGPIRAGLGWVRDGPRSHPYNFPAGSGGSILRSSSTPVQGTVPVDLASRQEEEEQSPDSTEEEPVTLPRRTTNDGFHLLKAGGSCFALISVTANQVKCYRFRVKKNHRHRYENCTTTWFTVADNGAERQGQAQILITFGSPSQRQDFLKHVPLPPGMNISGFTASLDF | no binding

What follows are molecules tested against full-length HPV16 E2 protein (human papillomavirus type 16 (HPV16), UniProt P03120) (assay: cell-based or functional assay).

Row | Molecule | % REPRESSION (hGH reporter)
23 | E2-85 (methionine, alanine and the C-terminal 83 amino acids of HPV16 E2) (other) MASNTTPIVHLKGDANTLKCLRYRFKKHCTLYTAVSSTWHWTGHNVKHKSAIVTLTYDSEWQRDQFLSQVKIPKTITVSTGFMSI | 87.2%
24 | BPV1 E2 repressor with a tryptophan to asparagine mutation at amino acid residue 360 (other) MAGAGRIYYSRFGDEAARFSTTGHYSVRDQDRVYAGVSSTSSDFRDRPDGVWVASEGPEGDPAGKEAEPAQPVSSLLGSPACGPIRAGLGWVRDGPRSHPYNFPAGSGGSILRSSSTPVQGTVPVDLASRQEEEEQSPDSTEEEPVTLPRRTTNDGFHLLKAGGSCFALISGTANQVKCYRFRVKKNHRHRYENCTTTNFTVADNGAERQGQAQILITFGSPSQRQDFLKHVPLPPGMNISGFTASLDF | 0%
25 | E2-123 (methionine, valine and the C-terminal 121 amino acids of HPV16 E2) (other) MVPDTGNPCHTTKLLHRDSVDSAPILTAFNSSHKGRINCNSNTTPIVHLKGDANTLKCLRYRFKKHCTLYTAVSSTWHWTGHNVKHKSAIVTLTYDSEWQRDQFLSQVKIPKTITVSTGFMSI | 100%

What follows are molecules tested against full-length HPV16 E2 protein (human papillomavirus type 16 (HPV16)) (UniProt P03120) (assay: not given).

Row | Molecule | % REPRESSION (hGH reporter)
26 | native BPV1 E2 repressor (C-terminal 249 amino acids of the BPV1 E2 protein) (from UniProt P03122) | 100%
